This is an account of results in patent US20250002610A1 (Genmab, published 2025).

The target of experiment [1] is T1, human DR4 (Death Receptor 4), cell surface expressed on human tumor cell lines (human, UniProt O00220 24-468).
T1 construct: also called TNFRSF10A; TRAIL-R1
T1 sequence: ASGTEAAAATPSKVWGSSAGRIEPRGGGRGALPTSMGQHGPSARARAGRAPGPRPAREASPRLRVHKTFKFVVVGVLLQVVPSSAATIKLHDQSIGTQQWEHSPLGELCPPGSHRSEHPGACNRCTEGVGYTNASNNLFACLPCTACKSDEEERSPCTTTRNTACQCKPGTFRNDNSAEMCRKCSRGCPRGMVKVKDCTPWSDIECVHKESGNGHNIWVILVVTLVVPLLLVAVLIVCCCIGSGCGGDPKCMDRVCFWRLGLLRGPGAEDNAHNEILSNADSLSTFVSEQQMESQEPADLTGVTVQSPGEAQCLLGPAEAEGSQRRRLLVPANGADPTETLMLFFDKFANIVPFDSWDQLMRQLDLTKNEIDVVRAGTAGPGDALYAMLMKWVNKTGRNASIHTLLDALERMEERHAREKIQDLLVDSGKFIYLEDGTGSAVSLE
Briefly: flow cytometry, HCT-15 cells, average ± SEM.

The target in experiment [2] is T2, human DR4 with death domain deletion on ExpiCHO-S cells (human). Briefly: flow cytometry, ExpiCHO-S cells expressing human DR4, n = 3. The method, then:
Binding of BisG1-FAPα-FERL/DR4-FERR, BisG1-DR4-FEAL/b12-FEAR and IgG1-DR4-FERR to DR4 of various species commonly used for nonclinical toxicology studies was assessed by flow cytometry using ExpiCHO-S cells transiently expressing DR4 from different animal species. In contrast to other species, rodents only express one DR which has highest homology with human DR5. Therefore, ExpiCHO-S cells transiently expressing rat and mouse DR protein were used instead. All DR constructs lack the intracellular DD to avoid apoptosis of transfected cells upon DR(4) activation. IgG1-b12 was used as negative control.

Experiment [3] deals with T3, cynomolgus DR4MfECD-FcHisCtag (cynomolgus monkey).
T3 construct: also called recombinant cynomolgus monkey DR4
T3 chain: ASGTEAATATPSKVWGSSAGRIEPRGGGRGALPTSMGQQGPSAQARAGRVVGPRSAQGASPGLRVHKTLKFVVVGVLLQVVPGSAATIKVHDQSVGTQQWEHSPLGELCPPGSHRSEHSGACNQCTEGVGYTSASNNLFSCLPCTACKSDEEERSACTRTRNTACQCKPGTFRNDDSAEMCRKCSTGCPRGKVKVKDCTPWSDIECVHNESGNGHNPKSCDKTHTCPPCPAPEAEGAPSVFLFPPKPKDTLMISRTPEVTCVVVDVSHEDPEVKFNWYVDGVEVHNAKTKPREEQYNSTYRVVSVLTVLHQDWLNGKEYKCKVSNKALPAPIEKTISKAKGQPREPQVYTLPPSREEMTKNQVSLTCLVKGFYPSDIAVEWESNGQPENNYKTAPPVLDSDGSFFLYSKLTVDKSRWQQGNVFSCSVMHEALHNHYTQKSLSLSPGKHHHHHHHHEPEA
Briefly: BLI (Octet), antigen captured on anti-Penta-HIS sensors, average of three experiments. As to the method: (§1) Experiments were carried out while shaking at 1,000 RPM at 30° C. Amine Reactive 2nd Generation (AR2G) biosensors (Sartorius, Cat #18-5092) were activated by reaction with 20 mM EDC (N-(3-Dimethylaminopropyl)-N′-ethylcarbodiimide hydrochloride) (Sigma-Aldrich, Cat #03449) and 10 mM s-NHS (N-hydroxysulfosuccinimide sodium salt) (Sigma-Aldrich, Cat #56485) for 300 s. The activated AR2G sensors were loaded with 2.5 μg/mL His-tagged recombinant Human FAPα (Acro Biosystems, Cat #FAP-H5244-100ug) in 10 mM Sodium Acetate pH 5.0 (Sartorius, Cat #18-1069) or 2.5 μg/mL His-tagged recombinant Cynomolgus FAPα (Acro Biosystems, Cat #FAP-C52H3-100ug) in 10 mM Sodium Acetate pH 5.0 for 600 s and quenched with 1 M ethanolamine pH 8.5 (Sartorius Cat #18-1071) for 300 s. After a baseline measurement in Sample Diluent (1000 s; Sartorius, Cat #18-1104), the association (100 s) and dissociation (4,000 s) of functionally monovalent antibody was determined using a concentration range of 0.78-800 nM with two-fold dilution steps in Sample Diluent. The molecular mass of the antibodies used for the calculations was calculated from the sequences.
(§2) The binding affinity of BisG1-FAPα-FERL/DR4-FERR, BisG1-b12-FERL/DR4-FERR and control BisG1-FAPα-FERL/b12-FERR to recombinant human and cynomolgus monkey DR4 protein was determined using label-free biolayer interferometry on an Octet HTX instrument (Sartorius).
(§3) The protocol detailed in Example 5 was used with the following differences: anti-Penta-HIS biosensors (Sartorius, Cat #18-5120) were used; the sensors were preconditioned by exposure to 10 mM glycine (Sigma-Aldrich, Cat #15527) buffer pH 1.5 for 5 s, followed by neutralization in Sample Diluent (Sartorius, Cat #18-1104) for 5 s; both steps were repeated 2 times; the sensors were loaded with 50 nM human DR4HsECD-FcHisCtag (SEQ ID NO: 66), or cynomolgus DR4MfECD-FcHisCtag (SEQ ID NO: 67), for 600 s; the dissociation time was 1,000 s; The window of interest for the dissociation time was set at 100 s for the cynomolgus antigen and at 1,000 s for the human antigen.

In experiment [4] the target is T4, human DR4HsECD-FcHisCtag (human).
T4 construct: also called recombinant human DR4
The description is as above. As to the method:
as §1, §2, §3

The target in experiment [5] is T2, human DR4 with death domain deletion on …. Briefly: flow cytometry, ExpiCHO-S cells expressing human DR4, average ± SEM.
Experiment [6] concerns the target T1, human DR4 (Death Receptor 4), cell …. Briefly: flow cytometry, MDA-MB-231 cells, n = 3.

T4 sequence (chain, as listed by the source limits assumed): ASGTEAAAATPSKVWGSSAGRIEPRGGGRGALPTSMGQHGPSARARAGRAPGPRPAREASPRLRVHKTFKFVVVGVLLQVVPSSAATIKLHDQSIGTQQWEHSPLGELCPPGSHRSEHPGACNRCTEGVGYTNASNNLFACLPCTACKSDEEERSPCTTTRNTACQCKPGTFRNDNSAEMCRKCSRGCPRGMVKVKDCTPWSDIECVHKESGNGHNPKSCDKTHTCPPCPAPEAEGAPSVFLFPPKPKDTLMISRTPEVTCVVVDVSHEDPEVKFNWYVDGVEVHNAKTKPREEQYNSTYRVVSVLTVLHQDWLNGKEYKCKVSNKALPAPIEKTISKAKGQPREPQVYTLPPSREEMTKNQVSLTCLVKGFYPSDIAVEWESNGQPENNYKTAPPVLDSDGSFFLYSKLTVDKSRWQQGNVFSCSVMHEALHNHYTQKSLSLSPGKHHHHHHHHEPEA
T2 sequence (chain, as listed by the source limits assumed, stated change not applied): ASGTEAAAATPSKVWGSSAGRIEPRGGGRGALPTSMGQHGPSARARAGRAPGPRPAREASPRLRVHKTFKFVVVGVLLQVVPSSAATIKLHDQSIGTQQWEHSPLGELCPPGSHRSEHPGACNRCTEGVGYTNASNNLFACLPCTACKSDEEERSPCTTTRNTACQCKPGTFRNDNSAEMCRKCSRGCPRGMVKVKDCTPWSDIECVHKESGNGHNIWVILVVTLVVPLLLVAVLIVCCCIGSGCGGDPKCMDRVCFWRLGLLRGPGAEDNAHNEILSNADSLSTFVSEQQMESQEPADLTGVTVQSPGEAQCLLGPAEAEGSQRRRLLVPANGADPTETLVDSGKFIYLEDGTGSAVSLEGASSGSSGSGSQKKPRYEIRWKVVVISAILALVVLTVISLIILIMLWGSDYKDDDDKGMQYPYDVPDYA

B1: BisG1-FAPα-FERL/DR4-FERR (bispecific antibody, human IgG1, kappa, lambda)
heavy 1: EVQLLESGGGLVQPGGSPRLSCEASGFTFSSYALSWVRQAPGKGLEWVSAISGSGGGRYYADSVKGRFTISRDNSKNTLFLQMNSLRAEDTAVYYCAKEGYSSSGTYWDHWGQGTLVTVSSASTKGPSVFPLAPSSKSTSGGTAALGCLVKDYFPEPVTVSWNSGALTSGVHTFPAVLQSSGLYSLSSVVTVPSSSLGTQTYICNVNHKPSNTKVDKRVEPKSCDKTHTCPPCPAPEFERGPSVFLFPPKPKDTLMISRTPEVTCVVVDVSHEDPEVKFNWYVDGVEVHNAKTKPREEQYNSTYRVVSVLTVLHQDWLNGKEYKCKVSNKALPAPIEKTISKAKGQPREPQVYTLPPSREEMTKNQVSLTCLVKGFYPSDIAVEWESNGQPENNYKTTPPVLDSDGSFLLYSKLTVDKSRWQQGNVFSCSVMHEALHNHYTQKSLSLSPG
light 1: AIQMTQSPSSVSASVGDRVTITCRASQGVSSWLAWYQQKPGRAPKLLIYVASTLQSGVPSRFSGSGSGTDFTLTINSLQPEDFATYYCQQANSFPPTFGQGTRLEMKRTVAAPSVFIFPPSDEQLKSGTASVVCLLNNFYPREAKVQWKVDNALQSGNSQESVTEQDSKDSTYSLSSTLTLSKADYEKHKVYACEVTHQGLSSPVTKSFNRGEC
heavy 2: QVQLQESGPGLVKPSGTLSLTCAVSGGSISSYSWWSWIRQPPGKGLEWIGELYHSGSTNYNPSLKSRVTISVDKSKNQFSLKLRSVTAADTAVYYCVRGVATIDYWGQGTLVTVSSASTKGPSVFPLAPSSKSTSGGTAALGCLVKDYFPEPVTVSWNSGALTSGVHTFPAVLQSSGLYSLSSVVTVPSSSLGTQTYICNVNHKPSNTKVDKRVEPKSCDKTHTCPPCPAPEFERGPSVFLFPPKPKDTLMISRTPEVTCVVVDVSHEDPEVKFNWYVDGVEVHNAKTKPREEQYNSTYRVVSVLTVLHQDWLNGKEYKCKVSNKALPAPIEKTISKAKGQPREPQVYTLPPSREEMTKNQVSLTCLVKGFYPSDIAVEWESNGQPENNYKTTPPVLDSDGSFFLYSRLTVDKSRWQQGNVFSCSVMHEALHNHYTQKSLSLSPG
light 2: QSALTQPPSASGSPGQSVTISCTGTSSDVGGYNFVSWYQQDPGKAPKLLIYEVTKRPSGVPDRFSGSKSGNTASLTVSGLQAEDEADYYCSSYAGSNNVMFGGGTKLTVLGQPKAAPSVTLFPPSSEELQANKATLVCLISDFYPGAVTVAWKADSSPVKAGVETTTPSKQSNNKYAASSYLSLTPEQWKSHRSYSCQVTHEGSTVEKTVAPTECS
notes: Human IgG1 bispecific made by controlled Fab-arm exchange of IgG1-FAPα-FERL and IgG1-DR4-FERR; monovalent for FAPα and for DR4; also called GEN1057
Consider B1, for which the EC50 in experiment [1] was determined as 0.65 µg/mL; in experiment [2], 0.11 µg/mL; in experiment [5] it was 0.5 µg/mL. The values for the Kd in experiment [3] and in experiment [4] were 290 nM and 0.39 nM, respectively. For the same molecule, the results for the koff in experiment [3] and in experiment [4] were 0.008 s⁻¹ and 0.00012 s⁻¹, respectively. In addition, the kon in experiment [3] amounted to 28000 M⁻¹ s⁻¹; in experiment [4] it was 320000 M⁻¹ s⁻¹.

B2: BisG1-b12-FERL/DR4-FERR (bispecific antibody, human IgG1, kappa, lambda)
heavy 1: QVQLVQSGAEVKKPGASVKVSCQASGYRFSNFVIHWVRQAPGQRFEWMGWINPYNGNKEFSAKFQDRVTFTADTSANTAYMELRSLRSADTAVYYCARVGPYSWDDSPQDNYYMDVWGKGTTVIVSSASTKGPSVFPLAPSSKSTSGGTAALGCLVKDYFPEPVTVSWNSGALTSGVHTFPAVLQSSGLYSLSSVVTVPSSSLGTQTYICNVNHKPSNTKVDKRVEPKSCDKTHTCPPCPAPEFERGPSVFLFPPKPKDTLMISRTPEVTCVVVDVSHEDPEVKFNWYVDGVEVHNAKTKPREEQYNSTYRVVSVLTVLHQDWLNGKEYKCKVSNKALPAPIEKTISKAKGQPREPQVYTLPPSREEMTKNQVSLTCLVKGFYPSDIAVEWESNGQPENNYKTTPPVLDSDGSFLLYSKLTVDKSRWQQGNVFSCSVMHEALHNHYTQKSLSLSPG
light 1: EIVLTQSPGTLSLSPGERATFSCRSSHSIRSRRVAWYQHKPGQAPRLVIHGVSNRASGISDRFSGSGSGTDFTLTITRVEPEDFALYYCQVYGASSYTFGQGTKLERKRTVAAPSVFIFPPSDEQLKSGTASVVCLLNNFYPREAKVQWKVDNALQSGNSQESVTEQDSKDSTYSLSSTLTLSKADYEKHKVYACEVTHQGLSSPVTKSFNRGEC
heavy 2: QVQLQESGPGLVKPSGTLSLTCAVSGGSISSYSWWSWIRQPPGKGLEWIGELYHSGSTNYNPSLKSRVTISVDKSKNQFSLKLRSVTAADTAVYYCVRGVATIDYWGQGTLVTVSSASTKGPSVFPLAPSSKSTSGGTAALGCLVKDYFPEPVTVSWNSGALTSGVHTFPAVLQSSGLYSLSSVVTVPSSSLGTQTYICNVNHKPSNTKVDKRVEPKSCDKTHTCPPCPAPEFERGPSVFLFPPKPKDTLMISRTPEVTCVVVDVSHEDPEVKFNWYVDGVEVHNAKTKPREEQYNSTYRVVSVLTVLHQDWLNGKEYKCKVSNKALPAPIEKTISKAKGQPREPQVYTLPPSREEMTKNQVSLTCLVKGFYPSDIAVEWESNGQPENNYKTTPPVLDSDGSFFLYSRLTVDKSRWQQGNVFSCSVMHEALHNHYTQKSLSLSPG
light 2: QSALTQPPSASGSPGQSVTISCTGTSSDVGGYNFVSWYQQDPGKAPKLLIYEVTKRPSGVPDRFSGSKSGNTASLTVSGLQAEDEADYYCSSYAGSNNVMFGGGTKLTVLGQPKAAPSVTLFPPSSEELQANKATLVCLISDFYPGAVTVAWKADSSPVKAGVETTTPSKQSNNKYAASSYLSLTPEQWKSHRSYSCQVTHEGSTVEKTVAPTECS
notes: Fab-arm exchange of IgG1-b12-FERL and IgG1-DR4-FERR; also called bsIgG1-ctrl-FERLxDR4-FERR
On to B2, for which, in experiment [1], the EC50 was determined as 0.56 µg/mL. The molecule further gave an EC50 in experiment [6] of 0.92 µg/mL. In experiment [3], this molecule came in with a Kd of 260 nM, a koff of 0.0082 s⁻¹ and a kon of 31000 M⁻¹ s⁻¹. In experiment [4], the Kd was found to be 0.32 nM, the koff was found to be 0.0001 s⁻¹ and the kon is 330000 M⁻¹ s⁻¹.

B3: IgG1-DR4-FERR (antibody, V domains shown)
VH: QVQLQESGPGLVKPSGTLSLTCAVSGGSISSYSWWSWIRQPPGKGLEWIGELYHSGSTNYNPSLKSRVTISVDKSKNQFSLKLRSVTAADTAVYYCVRGVATIDYWGQGTLVTVSS
VL: QSALTQPPSASGSPGQSVTISCTGTSSDVGGYNFVSWYQQDPGKAPKLLIYEVTKRPSGVPDRFSGSKSGNTASLTVSGLQAEDEADYYCSSYAGSNNVMFGGGTKLTVLG
notes: Bivalent monoclonal IgG1 lambda
In the case of B3, the figures for the EC50 in experiment [6], in experiment [2] and in experiment [5] were 0.37 µg/mL, 0.04 µg/mL and 0.14 µg/mL, respectively.
